# In patent US20100136580A1 (Genentech, published 2010):
# No end group written: not given here.
# T1: purified Dvl2PDZ domain polypeptide (human, UniProt O14641 248-364)
# T1 construct: range 248-364; As used in the fluorescence polarization assay; also called DvlPDZ domain
# T1 sequence (looked up): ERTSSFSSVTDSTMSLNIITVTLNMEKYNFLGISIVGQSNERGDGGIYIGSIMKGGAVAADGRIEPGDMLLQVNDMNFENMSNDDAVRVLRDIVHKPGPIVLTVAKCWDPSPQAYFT
# T2: GST-Dvl2PDZ fusion protein (human, UniProt O14641 248-364)
# T2 construct: range 248-364; Made with the pGEX E. coli expression system; also called GST-PDZ fusion protein; not shown: glutathione S-transferase (GST) encoded by plasmid pGEX
# T2 sequence (looked up): T1 sequence (looked up)
# B1: Ac-… (DVLp_C) (peptide)
# peptide: Ac-RQIKIWFQNRRMKWKKKWYGWL
# B2: Peptide N3 (GEIVLWSDIPG) (peptide)
# peptide: Ac-GEIVLWSDIPG-NH2
# notes: synthetic internal peptide ligand
# B3: SEQ ID NO 65 (peptide)
# peptide: TVVWHDYGWIGGG
# B4: SEQ ID NO 60 (peptide)
# peptide: LVQLTDYGWIGGG
# B5: SEQ ID NO 66 (peptide)
# peptide: ETSWKQYGWIGGG
# B6: SEQ ID NO 72 (peptide)
# peptide: TDYGWIDYPP
# B7: SEQ ID NO 59 (peptide)
# peptide: TVVWHDYGWIGGG
# B8: SEQ ID NO 69 (peptide)
# peptide: QYRFIDYGWIGGG
# B9: SEQ ID NO 58 (peptide)
# peptide: LWRVTDYGWVGGG
# B10: SEQ ID NO 78 (peptide)
# peptide: LILVNYGWIDGGG
# B11: SEQ ID NO 73 (peptide)
# peptide: LVPIFYGWIDGGG
# B12: SEQ ID NO 74 (peptide)
# peptide: ASLKYYGWLDGGG
# B13: SEQ ID NO 67 (peptide)
# peptide: PYTWINYGWVGGG
# B14: SEQ ID NO 64 (peptide)
# peptide: LWRVTDYGWVGGG
# B15: SEQ ID NO 79 (peptide)
# peptide: WTIRDYGWLDGGG
# B16: SEQ ID NO 80 (peptide)
# peptide: VWHYYGWLDGGG
# B17: SEQ ID NO 61 (peptide)
# peptide: DTAYKDYGWIGGG
# B18: SEQ ID NO 63 (peptide)
# peptide: EWILTDYGVVGGG
# B19: SEQ ID NO 77 (peptide)
# peptide: TEYGWMDYHP
# B20: SEQ ID NO 75 (peptide)
# peptide: TRFTNYGWLDGGG
# B21: SEQ ID NO 68 (peptide)
# peptide: DSLKYYGWIGGG
# B22: SEQ ID NO 62 (peptide)
# peptide: SEWKNYGYIGGG
# B23: SEQ ID NO 71 (peptide)
# peptide: SIIYYGWLDGGG
# B24: SEQ ID NO 70 (peptide)
# peptide: SAYKCYGWIDGGG
# B25: SEQ ID NO 76 (peptide)
# peptide: AWIVDYGWIDGGG
# B26: probe peptide (FAM-KWYGWL-COOH) (peptide)
# peptide: {FAM}-KWYGWL-OH
# notes: fluorescence polarization probe, 10 nM
# B27: Peptide N2 (GWKDYGWIDG) (peptide)
# peptide: Ac-GWKDYGWIDG-NH2
# notes: as for B2
# B28: Peptide D1 (KWYGWL-COOH) (peptide)
# peptide: Ac-KWYGWL-OH
# notes: synthetic peptide
# B29: Peptide D3 (WKWYGWL) (peptide)
# peptide: Ac-WKWYGWL
# notes: synthetic peptide; D1 with a Trp extension at position -6
# B30: Peptide D4 (WKWYGWF) (peptide)
# peptide: Ac-WKWYGWF
# notes: synthetic peptide; D2 with a Trp extension at position -6
# B31: Peptide D5 (KGFGML-COOH), hexapeptide of the C-terminal sequence of human ubiquitin protein ligase E3A (UBE3A) (peptide)
# peptide: Ac-KGFGML-OH
# notes: synthetic peptide
# B32: Peptide D2 (KWYGWF) (peptide)
# peptide: Ac-KWYGWF
# notes: synthetic peptide; D1 with Leu to Phe at position 0
# Molecular target: DvlPDZ domain (endogenous Dvl in the treated cells)
# Assay: cell-based or functional assay
row,Binder,"inhibition of Wnt3a-stimulated transcriptional activity (TopGlow assay, HEK293 cells)"
1,B1,50%

# Molecular target: T1, purified Dvl2PDZ domain polypeptide
# Assay: fluorescence polarization competition
# Protocol: (§1) The binding affinities of synthetic peptides were also measured by Flourescence polarization assay. Serial dilution of purified Dvl2PDZ domain polypeptide (1-10 μM) was incubated with 10 nM probe peptide (FAM-KWYGWL-COOH) (SEQ ID NO: 169) in PBS, 0.1% Triton X100 as 30 μl volume in 96-well black HE96 plates (LJL Biosystem, Inc, Calif.), and incubated for 15 minutes at room temperature. Polarization measurements were performed in Analyst platereader (LJL Biosystems, Inc., Sunnyvale, Calif.). […] Competition experiments were performed by addition of serial dilution of the free peptides (0-500 μM) to solution with 10 nM probe and 1 μM Dvl2PDZ. The polarization was measured and IC50 values were derived as described above. Kᵢ values were calculated as described previously.
# Flourescence polarization assay was used to measure the affinity of two internal peptide ligands N2 and N3 to DvlPDZ domain.
row,Binder,fold lower affinity than D1
1,B2,6 fold

# Molecular target: T2, GST-Dvl2PDZ fusion protein
# Assay: phage display selection on GST-Dvl2PDZ
# Protocol: The libraries were cycled through rounds of binding selection with a GST-Dvl2PDZ fusion protein coated on 96-well Maxisorp immunoplates as the capture target. Phage were propagated in E. coli XL1-blue with M13-KO7 helper phage and 10 μM IPTG. After four rounds of binding selection, individual phage clones were analyzed in a high-throughput phage ELISA, and positive clones were subjected to DNA sequence analysis.
# We used decapeptide libraries fused to the C-terminus or N-terminus of the phage coat protein. The library contained NNK degenerate codons that encoded all 20 natural amino acids. The possible occurrence of amber stop codons in the degenerate codon also provided for the display of shorter peptides for the C-terminal library. Each library was cycled through four rounds of binding selection with immobilized GST-Dvl2PDZ fusion protein as the capture target.
row,Binder,binding result
1,B3,binds
2,B4,binds
3,B5,binds
4,B6,binds
5,B7,binds
6,B8,binds
7,B9,binds
8,B10,binds
9,B11,binds
10,B12,binds
11,B13,binds
12,B14,binds
13,B15,binds
14,B16,binds
15,B17,binds
16,B18,binds
17,B19,binds
18,B20,binds
19,B21,binds
20,B22,binds
21,B23,binds
22,B24,binds
23,B25,binds

# Molecular target: T1, purified Dvl2PDZ domain polypeptide
# Assay: fluorescence polarization, direct titration of Dvl2PDZ against 10 nM probe
# Protocol: as §1
row,Binder,Kd
1,B26,536 nM

# Molecular target: T1, purified Dvl2PDZ domain polypeptide
# Assay: fluorescence polarization competition; 10 nM FAM-KWYGWL probe, 1 µM Dvl2PDZ
# Protocol: as §1
row,Binder,Ki
1,B2,4620 nM
2,B27,1210 nM
3,B28,725 nM

# Molecular target: T2, GST-Dvl2PDZ fusion protein
# Assay: competition ELISA; GST-Dvl2PDZ (600 nM) binding to immobilized biotin-KWYGWL
# Protocol: Affinity assays-The binding affinities of peptides for Dvl2PDZ were determined as IC₅₀ values using a competition ELISA, as previously described. The IC₅₀ value was defined as the concentration of peptide that blocked 50% of PDZ domain binding to immobilized peptide. Assay plates were prepared by immobilizing an amino-terminally biotinylated peptide (KWYGWL_-COOH) (SEQ ID NO: 169) on Maxisorp immunoplates coated with neutravidin and blocked with BSA. A fixed concentration of GST-PDZ fusion protein (600 nM) in PBS, 0.5% BSA, 0.1% Tween 20 (PBT buffer) was preincubated for 1 h with serial dilutions of peptide and then transferred to the assay plates. After 15 min incubation, the plates were washed with PBS, 0.05% Tween 20, incubated with a mixture of anti-GST antibody (0.5 μg/m1) and horseradish peroxidase/rabbit anti-mouse IgG antibody conjugate (1:2000 dilution) in PBT buffer, washed again, and detected with TMB peroxidase substrate.
row,Binder,IC50
1,B29,140 nM
2,B30,310 nM
3,B31,243000 nM
4,B28,1340 nM
5,B32,930 nM
